According to patent US10851403B2, “Cyclin-dependent kinase substrate” (SYSMEX CORPORATION, priority 2017, dated 2020):
No end group written: not given here. *: point of attachment. Biotin = O=C1N[C@H]2[C@H](CS[C@H]2CCCCC(=O)*)N1; Ahx = NCCCCCC(=O)O

What was measured:
[1] = target: T1, CDK4/cyclin D3 (Homo sapiens, UniProt P11802); experiment: CDK reactivity test 3 (Test Example 3); format: biochemical; conditions: luminescence intensity when using CDK6 set as 100%, HRP-labeled anti-FITC antibody
T1 construct: purchased SignalChem
T1 sequence (P11802 whole entry): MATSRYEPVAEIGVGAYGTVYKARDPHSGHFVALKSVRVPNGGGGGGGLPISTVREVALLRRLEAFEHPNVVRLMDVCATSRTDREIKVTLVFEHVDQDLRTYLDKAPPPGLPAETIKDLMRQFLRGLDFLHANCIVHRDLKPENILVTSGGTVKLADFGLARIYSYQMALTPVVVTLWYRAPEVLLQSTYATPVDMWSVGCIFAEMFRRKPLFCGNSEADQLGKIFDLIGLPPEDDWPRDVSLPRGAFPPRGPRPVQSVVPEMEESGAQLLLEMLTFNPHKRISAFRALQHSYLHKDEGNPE
T1 sequence (P30281 whole entry partner): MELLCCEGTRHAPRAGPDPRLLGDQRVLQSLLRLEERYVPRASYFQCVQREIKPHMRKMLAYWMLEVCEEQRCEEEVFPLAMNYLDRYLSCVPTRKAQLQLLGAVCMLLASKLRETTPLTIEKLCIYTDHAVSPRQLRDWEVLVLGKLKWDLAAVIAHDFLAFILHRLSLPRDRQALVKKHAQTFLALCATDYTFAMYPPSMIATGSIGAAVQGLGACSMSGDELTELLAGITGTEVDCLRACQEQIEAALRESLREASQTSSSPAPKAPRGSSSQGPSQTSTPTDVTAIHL
Procedure: The reactivity of the polypeptides obtained in Production Example 3 to CDK1, CDK2, CDK4 and CDK6 was examined. Specifically, it was performed as follows.
In a well of a hydrophilic filter plate, 30 μL of a CDK solution (composition: 10 μg/mL CDK/cyclin complex, 1% BSA, triethanolamine buffer solution (pH 7.5)) containing CDK1/cyclin A2, CDK2/cyclin E1, CDK4/cyclin D3 or CDK6/cyclin D3 (all manufactured by SignalChem) and 30 μL of a kinase reaction solution (composition: 4 μg/mL substrate peptide, 50 mM HEPES-NaOH buffer solution (pH 7.4), 15 mM MgCl2, 2 mM ATP-γS) containing any of Comparative Polypeptides 2 to 4 as a substrate peptide were mixed, and the plate was incubated at 37° C. for 1 hour with stirring at 900 rpm using a constant temperature shaker. The reaction solution was recovered by centrifugation (4° C., 2000 rpm, 5 minutes), and 28.6 μL of the reaction solution was dispensed into each well of a PCR plate. […] Luminescence was detected with a luminescence plate reader, and the luminescence intensity was measured. For each polypeptide, the relative value of the luminescence intensity when using other CDKs, in the case where the luminescence intensity when using CDK6 was set as 100%, was calculated.

[2] = target: T2, CDK6/cyclin D3 (Homo sapiens, UniProt Q00534); experiment: CDK reactivity test 6 (Test Example 6), automated immunoassay system HISCL-800; format: biochemical; conditions: 0.01 to 10 μg/mL CDK1/A2, CDK2/E1, CDK4/D3 or CDK6/D3; ATP; anti-phospho-antibody; 42° C. 3 minutes
T2 construct: purchased SignalChem
T2 sequence (Q00534 whole entry): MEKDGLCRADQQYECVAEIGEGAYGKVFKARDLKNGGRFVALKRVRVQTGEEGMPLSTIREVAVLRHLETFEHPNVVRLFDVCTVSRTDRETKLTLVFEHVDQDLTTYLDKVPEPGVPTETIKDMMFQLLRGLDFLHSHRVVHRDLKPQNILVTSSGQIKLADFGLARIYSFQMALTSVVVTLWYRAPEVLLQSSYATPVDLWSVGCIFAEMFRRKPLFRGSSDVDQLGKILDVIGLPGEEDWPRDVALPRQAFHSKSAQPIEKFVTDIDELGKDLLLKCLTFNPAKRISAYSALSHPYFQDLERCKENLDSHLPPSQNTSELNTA
T2 sequence (P30281 whole entry partner): as the sequence (P30281 whole entry partner) above
Procedure: The reactivity of the polypeptide (Polypeptide 28) obtained in Production Example 5 to CDK1, CDK2, CDK4 and CDK6 was examined using an automated immunoassay system (manufactured by Sysmex Corporation, HISCL-800). Specifically, it was performed as follows.
In a well of a plate, 30 μL of a CDK solution (composition: 0.01 to 10 μg/mL CDK/cyclin complex, 1% BSA, triethanolamine buffer solution (pH 7.5)) containing CDK1/cyclin A2, CDK2/cyclin E1, CDK4/cyclin D3 or CDK6/cyclin D3 (all manufactured by SignalChem) and 30 μL of a kinase reaction solution (composition: 4 μg/mL substrate peptide, 50 mM HEPES-NaOH buffer solution (pH 7.4), 15 mM MgCl2, 16 mM ATP) containing Polypeptide 28 as a substrate peptide were mixed, and the plate was incubated at 42° C. for 3 minutes. 30 μL (containing 0.15 μg of magnetic St-Ab beads) of a HISCL HBsAg R2 reagent (manufactured by Sysmex Corporation) was added to the well, and the plate was incubated at 42° C. for 2 minutes. The beads in the well were precipitated using a magnet, and the supernatant was removed. Then, a HISCL washing solution (manufactured by Sysmex Corporation) was added, and the beads were washed by shaking several times. […] Luminescence was detected with a luminometer, and the luminescence intensity was measured.

relative value of the luminescence intensity [1]	Sequence	specific detection of CDK (luminescence intensity versus CDK concentration, FIG. 3) [2]
Not detected	PYKISEGLPTPAKMAPRSRI (PYKISEGLPTPAKMAPRSRI-NH2; not fully specified (N-terminus)) [Comparative Polypeptide 4, Comparative Polypeptide 3 with the CDK4 phosphorylation site residue replaced with alanine; N-terminal biotin]	–
–	GAPWSPDPWDDGGGG ({Biotin-Ahx}-GAPWSPDPWDDGGGG) [Polypeptide 28, acidic-residue mutant of Polypeptide 3, N-terminal biotin via aminohexane linker]	a substrate capable of specifically detecting CDK6
